± gives the uncertainty stated by the source.
Test: self-splicing fitness, log relative to wild type (ln ratio); higher = more splicing; Tetrahymena group I intron in knt gene, E. coli kanamycin selection, DiMSum; sequences stand for … in CUCUCU…GGAGGGAAAAGUUAUCAGGCAUGCACCUGGUAGCUAGUCUUUAAACCAAUAGAUUGCAUCGGUUUAAAAGGCAAGACCGUCAAAUUGCGGGAAAGGGGUCAACAGCCGUUCAGUACCAAGUCUCAGGGGAAACUUUGAGAUGGCCUUGCAAAGGGUAUGGUAAUAAGCUGACGGACAUGGUCCUAACCACGCAGCCAAGUCCUAAGUCAACAGAUCUUCUGUUGAUAUGGAUGCAGUUCACAGACUAAAUGUCGGUCGGGGAAGAUGUAUUCUUCUCAUAAGAUAUAGUCGGACCUCUCCUUAAUGGGAGCUAGCGGAUGAAGUGAUGCAACACUGGAGCCGCUGGGAACUAAUUUGUAUGCGAAAGUAUAUUGAUUAGUUUUGGAGUACUCGUGGUCG
Outline: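 Library with all eight P1ex-region intron nucleotides randomised, intron inside the knt kanamycin-resistance gene on pET-22b(+), in E. coli BL21(DE3). Cells grew overnight at 37°C or 30°C on LB agar with or without 25 μg/mL kanamycin (plus 100 μg/mL carbenicillin, 50 μM IPTG, 0.2% rhamnose), in six replicate transformations. Pooled colonies were amplicon-sequenced on Illumina HiSeq 2500. DiMSum fitness is the error-weighted combination of wild-type-normalised replicate fold changes, kanamycin versus none.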

Sequence	self-splicing fitness (ln) (30 °C)	self-splicing fitness (ln) (37 °C)
ACCCAGCAAUAUUACGACAU	-0.995 ± 0.011	-0.241 ± 0.032
ACCCAGCAAUAUUACGAGCG	-2.3 ± 0.074	-0.837 ± 0.091
ACCCAGCAAUAUUACGAGUG	-1.74 ± 0.054	-0.755 ± 0.058
ACCCAGCAAUAUUACGAUAG	-3.3 ± 0.1	-1.78 ± 0.1
ACCCAGCAAUAUUACGAUGC	-1.31 ± 0.06	0.13 ± 0.073
ACCCAGCAAUAUUACGAUUA	-1.61 ± 0.09	-1.41 ± 0.082
ACCCAGCAAUAUUACGCCAC	-4.62 ± 0.42	-1.82 ± 0.31
ACCCAGCAAUAUUACGCCCC	-1.3 ± 0.12	-0.142 ± 0.14
ACCCAGCAAUAUUACGGGGC	-4.5 ± 0.19	-2.73 ± 0.14
ACCCAGCAAUAUUACGGGUC	-1.89 ± 0.085	-2.74 ± 0.19
ACCCAGCAAUAUUACGUCAC	-3.29 ± 0.14	-2.18 ± 0.15
ACCCAGCAAUAUUACGUCCU	-0.73 ± 0.075	-0.51 ± 0.089
ACCCAGCAAUAUUACGUCUU	-1.25 ± 0.063	-0.446 ± 0.075
ACCCAGCAAUAUUACGUGAA	-0.191 ± 0.041	0.202 ± 0.063
ACCCAGCAAUAUUACGUGUG	-2.63 ± 0.062	-1.07 ± 0.064
ACCGAGCAAUAUUACGAAAG	-3.42 ± 0.37	-1.68 ± 0.17
ACCGAGCAAUAUUACGAACG	-2.36 ± 0.2	-0.527 ± 0.22
ACCGAGCAAUAUUACGAAUU	-4.54 ± 0.39	-1.89 ± 0.21
ACCGAGCAAUAUUACGACCA		-0.694 ± 0.33
ACCGAGCAAUAUUACGACCU	-1.75 ± 0.11	-0.53 ± 0.12
ACCGAGCAAUAUUACGAGGC	-4.59 ± 0.29	-3.23 ± 0.33
ACCGAGCAAUAUUACGAUAC	-4.32 ± 0.36	-2.09 ± 0.27
ACCGAGCAAUAUUACGCACA	-2.47 ± 0.11	-1.67 ± 0.11
ACCGAGCAAUAUUACGCCCA	-1.68 ± 0.29	-3.03 ± 0.3

From the supplement of paper PMC7877785
